Laboratory results as given in US20250320305A1 (Hoffmann-La Roche, published 2025).

Legend:
[1] = biological target: T1, biotinylated recombinant human FAP (human, UniProt Q12884 26-760, biotinylated); test: SPR (Biacore)
T1 construct: also called biotinylated human FAP

[2] = biological target: human CD40 expressed on cells (human, UniProt P25942 21-277); test: cell-based or functional assay
[3] = biological target: T2, His-tagged human FAP ectodomain (human, UniProt Q12884 27-760); test: SPR, His-tagged human FAP ectodomain as ligand
T2 construct: also called hu FAP ectodomain+poly-lys-tag+his6-tag; His-tagged FAP antigen

[4] = biological target: T3, human Fibroblast Activation Protein (FAP) expressed on cells (human, UniProt Q12884 1-760); test: flow cytometry, huFAP-transfected HEK cells
T3 construct: Cell-surface human FAP on transfected HEK or NIH/3T3 cells; also called huFAP; human FAP-transfected HEK cells
Procedure: The binding of anti-FAP antibodies with a human IgG1 P329G LALA Fc to human FAP was determined by flow cytometry using human FAP-transfected HEK cells. Briefly, the target cells were harvested with Cell Dissociation buffer, washed with FACS Buffer (PBS+2% FCS+5 mM EDTA+0.25% sodium acide) and seeded into 96-U bottom plates (1×10^5 cells/well). Unlabeled primary antibodies were added to the cells (final concentrations 10 μg/ml to 0.64 ng/ml; 1:5 dilutions) and incubated for 30 min at 4° C. After washing, cells were incubated with a PE-conjugated AffiPure F(ab)₂ Fragment Goat anti-human IgG, Fc□ specific (Jackson Immunoresearch) for 30 min at 4° C. in the dark. Afterwards, cells were washed, fixed and measured using a BD FACS LSR Fortessa™.

Row | Kd [1] [pM] | T ½ [1] [h] | koff [1] [s⁻¹] | kon [1] [M⁻¹ s⁻¹] | EC50, two cell line bridging assay (SEAP of HEK-Blue CD40L reporter cells with FAP-expressing WM-266-4 cells) [2] [pM] | Binder | other results
1 | 114 | 3.05 | 6.3e-05 | 551000 |  | P1AE1690_Fab, humanized anti-FAP clone 212 variant VH1G2a/VL1G1a (Fab, V domains shown, Fab) VH: QVQLVQSGAEVKKPGASVKVSCKASGYTLTDYNMDWVRQAPGKSLEWIGDIYPNTGGTIYNQKFKGRVTMTIDKSTSTVYMELSSLRSEDTAVYYCTRFRGIHYAMDYWGQGTTVTVSS VL: EIVLTQSPATLSLSPGERATLSCRASESVDNYGLSFINWFQQKPGQAPRLLIYGTSNRGSGIPARFSGSGSGTDFTLTISSLEPEDFAVYFCQQSNEVPYTFGGGTKVEIK | 
2 | 135 | 2.68 | 7.18e-05 | 530000 |  | P1AE1693_Fab, humanized anti-FAP clone 212 variant VH1G2a/VL1G2a (Fab, V domains shown, Fab) VH: QVQLVQSGAEVKKPGASVKVSCKASGYTLTDYNMDWVRQAPGKSLEWIGDIYPNTGGTIYNQKFKGRVTMTIDKSTSTVYMELSSLRSEDTAVYYCTRFRGIHYAMDYWGQGTTVTVSS VL: EIVLTQSPATLSLSPGERATLSCRASESVDNYGLSFINWFQQKPGQPPRLLIYGTSNRGSGIPARFSGSGSGTDFTLTISSLEPEDFAVYFCQQSNEVPYTFGGGTKVEIK | 
3 | 95 | 4.57 | 4.21e-05 | 443000 |  | P1AE1689_Fab, humanized anti-FAP clone 212 variant VH1G1a/VL1G1a (Fab, V domains shown, Fab) VH: QVQLVQSGAEVKKPGASVKVSCKASGYTLTDYNMDWVRQAPGQGLEWIGDIYPNTGGTIYNQKFKGRVTMTIDTSTSTVYMELSSLRSEDTAVYYCTRFRGIHYAMDYWGQGTTVTVSS VL: EIVLTQSPATLSLSPGERATLSCRASESVDNYGLSFINWFQQKPGQAPRLLIYGTSNRGSGIPARFSGSGSGTDFTLTISSLEPEDFAVYFCQQSNEVPYTFGGGTKVEIK | 
4 |  |  |  |  | 26.5 | P1AF0873, CD40 (P1AE0817) x FAP (P1AE1689) (1+1) C-terminal crossfab fusion (bispecific antibody, human IgG1, kappa, L234A L235A) light 1: QVQLVQSGAEVKKPGASVKVSCKASGYTLTDYNMDWVRQAPGQGLEWIGDIYPNTGGTIYNQKFKGRVTMTIDTSTSTVYMELSSLRSEDTAVYYCTRFRGIHYAMDYWGQGTTVTVSSASVAAPSVFIFPPSDEQLKSGTASVVCLLNNFYPREAKVQWKVDNALQSGNSQESVTEQDSKDSTYSLSSTLTLSKADYEKHKVYACEVTHQGLSSPVTKSFNRGEC light 2: DIVMTQTPLSLSVTPGQPASISCRSSQSLVHSNGNTFLHWYLQKPGQSPQLLIYTVSNRFSGVPDRFSGSGSGTDFTLKISRVEAEDVGVYFCSQTTHVPWTFGGGTKVEIKRTVAAPSVFIFPPSDRKLKSGTASVVCLLNNFYPREAKVQWKVDNALQSGNSQESVTEQDSKDSTYSLSSTLTLSKADYEKHKVYACEVTHQGLSSPVTKSFNRGEC heavy: not shown not shown | 
5 |  |  |  |  |  | P1AE2734, CD40 (P1AE0817) x FAP (P1AE1689) (2+1) with different C-terminal crossfab fusion (bispecific antibody, human IgG1, kappa, L234A L235A, bivalent for CD40, monovalent for FAP; also called VH-Ckappa fused to Fc) light 1: EIVLTQSPATLSLSPGERATLSCRASESVDNYGLSFINWFQQKPGQAPRLLIYGTSNRGSGIPARFSGSGSGTDFTLTISSLEPEDFAVYFCQQSNEVPYTFGGGTKVEIKSSASTKGPSVFPLAPSSKSTSGGTAALGCLVKDYFPEPVTVSWNSGALTSGVHTFPAVLQSSGLYSLSSVVTVPSSSLGTQTYICNVNHKPSNTKVDKKVEPKSC light 2: DIVMTQTPLSLSVTPGQPASISCRSSQSLVHSNGNTFLHWYLQKPGQSPQLLIYTVSNRFSGVPDRFSGSGSGTDFTLKISRVEAEDVGVYFCSQTTHVPWTFGGGTKVEIKRTVAAPSVFIFPPSDEQLKSGTASVVCLLNNFYPREAKVQWKVDNALQSGNSQESVTEQDSKDSTYSLSSTLTLSKADYEKHKVYACEVTHQGLSSPVTKSFNRGEC heavy 1: not shown heavy 2: QVQLVQSGAEVKKPGASVKVSCKASGYSFTGYYIHWVRQAPGQSLEWMGRVIPNAGGTSYNQKFKGRVTLTVDKSISTAYMELSRLRSDDTAVYYCAREGIYWWGQGTTVTVSSASTKGPSVFPLAPSSKSTSGGTAALGCLVKDYFPEPVTVSWNSGALTSGVHTFPAVLQSSGLYSLSSVVTVPSSSLGTQTYICNVNHKPSNTKVDKKVEPKSCDKTHTCPPCPAPEAAGGPSVFLFPPKPKDTLMISRTPEVTCVVVDVSHEDPEVKFNWYVDGVEVHNAKTKPREEQYNSTYRVVSVLTVLHQDWLNGKEYKCKVSNKALGAPIEKTISKAKGQPREPQVCTLPPSRDELTKNQVSLSCAVKGFYPSDIAVEWESNGQPENNYKTTPPVLDSDGSFFLVSKLTVDKSRWQQGNVFSCSVMHEALHNHYTQKSLSLSPG | Kd [3]: 210 pM; koff [3]: 5.2e-05 s⁻¹; kon [3]: 250000 M⁻¹ s⁻¹
6 |  |  |  |  | 2.5 | P1AE2302, CD40 (P1AE0817) x FAP (28H1) (2+1) C-terminal crossfab fusion (bispecific antibody, human IgG1, kappa, L234A L235A) light 1: EVQLLESGGGLVQPGGSLRLSCAASGFTFSSHAMSWVRQAPGKGLEWVSAIWASGEQYYADSVKGRFTISRDNSKNTLYLQMNSLRAEDTAVYYCAKGWLGNFDYWGQGTLVTVSSASVAAPSVFIFPPSDEQLKSGTASVVCLLNNFYPREAKVQWKVDNALQSGNSQESVTEQDSKDSTYSLSSTLTLSKADYEKHKVYACEVTHQGLSSPVTKSFNRGEC light 2: DIVMTQTPLSLSVTPGQPASISCRSSQSLVHSNGNTFLHWYLQKPGQSPQLLIYTVSNRFSGVPDRFSGSGSGTDFTLKISRVEAEDVGVYFCSQTTHVPWTFGGGTKVEIKRTVAAPSVFIFPPSDRKLKSGTASVVCLLNNFYPREAKVQWKVDNALQSGNSQESVTEQDSKDSTYSLSSTLTLSKADYEKHKVYACEVTHQGLSSPVTKSFNRGEC heavy 1: not shown heavy 2: QVQLVQSGAEVKKPGASVKVSCKASGYSFTGYYIHWVRQAPGQSLEWMGRVIPNAGGTSYNQKFKGRVTLTVDKSISTAYMELSRLRSDDTAVYYCAREGIYWWGQGTTVTVSSASTKGPSVFPLAPSSKSTSGGTAALGCLVEDYFPEPVTVSWNSGALTSGVHTFPAVLQSSGLYSLSSVVTVPSSSLGTQTYICNVNHKPSNTKVDEKVEPKSCDKTHTCPPCPAPEAAGGPSVFLFPPKPKDTLMISRTPEVTCVVVDVSHEDPEVKFNWYVDGVEVHNAKTKPREEQYNSTYRVVSVLTVLHQDWLNGKEYKCKVSNKALGAPIEKTISKAKGQPREPQVCTLPPSRDELTKNQVSLSCAVKGFYPSDIAVEWESNGQPENNYKTTPPVLDSDGSFFLVSKLTVDKSRWQQGNVFSCSVMHEALHNHYTQKSLSLSPG | 
7 |  |  |  |  |  | anti-FAP antibody 4B9 (antibody, V domains shown) VH: EVQLLESGGGLVQPGGSLRLSCAASGFTFSSYAMSWVRQAPGKGLEWVSAIIGSGASTYYADSVKGRFTISRDNSKNTLYLQMNSLRAEDTAVYYCAKGWFGGFNYWGQGTLVTVSS VL: EIVLTQSPGTLSLSPGERATLSCRASQSVTSSYLAWYQQKPGQAPRLLINVGSRRATGIPDRFSGSGSGTDFTLTISRLEPEDFAVYYCQQGIMLPPTFGQGTKVEIK | EC50 [4]: 0.089 µg/mL
8 |  |  |  |  | 13.2 | P1AA9663, CD40 (huCD40) x FAP (28H1) (2+2) C-terminal crossfab fusion (bispecific antibody, human IgG1, kappa, L234A L235A) light 1: EVQLLESGGGLVQPGGSLRLSCAASGFTFSSHAMSWVRQAPGKGLEWVSAIWASGEQYYADSVKGRFTISRDNSKNTLYLQMNSLRAEDTAVYYCAKGWLGNFDYWGQGTLVTVSSASVAAPSVFIFPPSDEQLKSGTASVVCLLNNFYPREAKVQWKVDNALQSGNSQESVTEQDSKDSTYSLSSTLTLSKADYEKHKVYACEVTHQGLSSPVTKSFNRGEC light 2: DIQMTQSPSSLSASVGDRVTITCRSSQSLVHSNGNTFLHWYQQKPGKAPKLLIYTVSNRFSGVPSRFSGSGSGTDFTLTISSLQPEDFATYFCSQTTHVPWTFGQGTKVEIKRTVAAPSVFIFPPSDRKLKSGTASVVCLLNNFYPREAKVQWKVDNALQSGNSQESVTEQDSKDSTYSLSSTLTLSKADYEKHKVYACEVTHQGLSSPVTKSFNRGEC heavy: not shown | 
9 | 213 | 1.8 | 0.000107 | 502000 |  | P1AE1702_Fab, humanized anti-FAP clone 212 variant with VL2G2a (Fab, V domains shown, Fab) VH: EVQLLESGGGLVQPGGSLRLSCAASGYTLTDYNMDWVRQAPGKGLEWVGDIYPNTGGTIYNQKFKGRFTISIDKSKNTAYLQMNSLRAEDTAVYYCTRFRGIHYAMDYWGQGTTVTVSS VL: DIQMTQSPSSLSASVGDRVTITCRASESVDNYGLSFINWFQQKPGQPPKLLIYGTSNRGSGVPSRFSGSGSGTDFTLTISSLQPEDFAMYFCQQSNEVPYTFGGGTKVEIK | 
